These results are taken from US20090281024A1 (RAPTOR PHARMACEUTICALS, published 2009).

T1: LRP2 CR89 Y1042W R1088D (human, UniProt P98164 1022-1105)
T1 construct: also called WVWD; not shown: N-terminal hexahistidine and S-peptide tag stretch of pET30(+)a
T1 chain: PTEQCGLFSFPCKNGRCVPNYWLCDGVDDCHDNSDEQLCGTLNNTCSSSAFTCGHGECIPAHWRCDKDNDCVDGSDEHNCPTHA

T2: LRP2 CR89 V1047D (human, UniProt P98164 1022-1105)
T2 construct: also called YDWR; not shown: N-terminal hexahistidine and S-peptide tag stretch of pET30(+)a
T2 chain: T1 chain with W22Y, V27D, D68R

T3: LRP2 CR89 V1047D R1088D (human, UniProt P98164 1022-1105)
T3 construct: also called YDWD; not shown: N-terminal hexahistidine and S-peptide tag stretch of pET30(+)a
T3 chain: T1 chain with W22Y, V27D

T4: MegaRAP1 d3 (human, UniProt P30533 235-353)
T4 construct: range 201-319 (mature RAP numbering); d3 of the variant selected on LRP2 CR89; also called RAPv2A d3; RAP v2A; not shown: N-terminal hexahistidine and S-peptide tags of pET30(+)a
T4 sequence (looked up): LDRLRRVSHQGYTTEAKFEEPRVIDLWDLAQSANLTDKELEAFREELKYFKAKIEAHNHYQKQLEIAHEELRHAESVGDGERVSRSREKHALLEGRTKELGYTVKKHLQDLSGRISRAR

B1: RAP d3 (wild-type third domain of the receptor-associated protein) (ligand, human, UniProt P30533 235-353, looked up)
chain: T4 sequence (looked up) with T13S, K17E, Y49H, K51E, A56K, E70K
notes: range 201-319 (mature RAP numbering); Expressed in E. coli from pET30(+)a; also called wild-type RAP d3; not shown: N-terminal hexahistidine and S-peptide tags of pET30(+)a
B2: LRP2 CR89 R1088D (receptor)
chain: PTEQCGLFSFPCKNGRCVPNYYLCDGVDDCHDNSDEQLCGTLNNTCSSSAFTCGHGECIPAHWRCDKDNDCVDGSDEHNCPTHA
notes: also called YVWD; not shown: N-terminal hexahistidine and S-peptide tag stretch of pET30(+)a
B3: LRP2 CR3031 (receptor)
chain: not shown
notes: domain: CR3031; not shown: N-terminal hexahistidine and S-peptide tags of pET30(+)a
B4: RAP-GDNF fusion protein (ligand, UniProt P30533 35-353, looked up)
chain: YSREKNQPKPSPKRESGEEFRMEKLNQLWEKAQRLHLPPVRLAELHADLKIQERDELAWKKLKLDGLDEDGEKEARLIRNLNVILAKYGLDGKKDARQVTSNSLSGTQEDGLDDPRLEKLWHKAKTSGKFSGEELDKLWREFLHHKEKVHEYNVLLETLSRTEEIHENVISPSDLSDIKGSVLHSRHTELKEKLRSINQGLDRLRRVSHQGYSTEAEFEEPRVIDLWDLAQSANLTDKELEAFREELKHFEAKIEKHNHYQKQLEIAHEKLRHAESVGDGERVSRSREKHALLEGRTKELGYTVKKHLQDLSGRISRARSPDKQMAVLPRRERNRQAAAANPENSRGKGRRGQRGKNRGCVLTAIHLNVTDLGLGYETKEELIFRYCSGSCDAAETTYDKILKNLSRNRRLVSDKVGQACCRPIAFDDDLSFLDDNLVYHILRKHSAKRCGCI
notes: Secreted from CHO cells as a disulfide-linked homodimer of about 120 kD

Substitutions are numbered along the chain they refer to.

Test [1] deals with T5, LRP1 CR3-5 (human).
T5 construct: range 852-973; also called L1 CR3-5; LRP1 CR3-S [sic]
T5 sequence (Q07954 852-973): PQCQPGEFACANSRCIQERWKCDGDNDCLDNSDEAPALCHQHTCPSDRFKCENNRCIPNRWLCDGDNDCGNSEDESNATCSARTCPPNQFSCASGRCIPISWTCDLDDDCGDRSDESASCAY
The test is described as follows: solid-phase assay, coated CR protein (FIG. 4). As to the method: Solid phase binding assays—Purified, refolded CR protein (1 μg) was bound to Nunc Maxisorp™ 96-well plates in TBS pH 8 supplemented with 5 mM CaCl₂ (TBSC) overnight at 4° C. Wells were washed with TBSC and then blocked with TBSC containing 2% bovine serum albumin (BSA). RAP ligands were then incubated with the immobilized receptor at a range of concentrations for 2 hours in the above blocking buffer supplemented with 0.05% Tween-20 at room temperature. Control wells contained no added ligand. As an additional control, to determine whether the absence of calcium affected binding, 10 mM EGTA was included in the incubation medium for some samples. Wells were washed with TBSTC and bound ligands detected with polyclonal anti-RAP (BP41/42, 1:1,000, BioMarin). Excess primary antibody was removed and wells washed before incubation with the secondary antibody, HRP-conjugated goat anti rabbit IgG (Bio-Rad). After washing, TMB substrate solutions (Bio-Rad) were added to detect HRP. Color development was stopped with 1N HCl. Absorption at 450 nm was measured with a microplate spectrophotometer (Molecular Devices). […]
The binding of wild-type RAP d3 to each CR pair or set of overlapping pairs was then measured by solid-phase assay (FIG. 4). […] Binding of RAP d3 to MAT CR12 and CR34, measured in a separate set of experiments, was also undetectable. […]

The next test deals with T1, LRP2 CR89 Y1042W R1088D. Description: solid-phase assay, coated CR protein. As to the method:
(§1) Wells were washed with TBSTC and bound ligands detected with polyclonal anti-RAP (BP41/42, 1:1,000, BioMarin). Excess primary antibody was removed and wells washed before incubation with the secondary antibody, HRP-conjugated goat anti rabbit IgG (Bio-Rad). After washing, TMB substrate solutions (Bio-Rad) were added to detect HRP. Color development was stopped with 1N HCl. Absorption at 450 nm was measured with a microplate spectrophotometer (Molecular Devices). Data were plotted and Kd values derived by non-linear regression with the assumption of single-site binding (GraphPad Prism).
(§2) One premise of this work was that amino acids at A, C, A′ and C′ within the calcium-binding loops of a CR pair were key determinants of binding affinity for RAP and would be similarly important for binding of RAP variants. To test this idea, mutant LRP2 CR89 were prepared in which the native, non-canonical residues at these positions were sequentially substituted with the non-native, canonical residues. As defined above, the A, C, A′, C′ string for LRP2 CR89 is YVWR. Mutants included LRP2 CR89Y1042W (WVWR), LRP2 CR89V1047D (YDWR), LRP2 CR89R1088D (YVWD), LRP2 CR89V1047D R1088D (YDWD), LRP2 CR89 Y1042W V1047D R1088D (WDWD), LRP2 CR89Y1042W V1047D (WDWR), LRP2 CR89Y1042W R1088D (WVWD). Binding to both RAP d3 and MegaRAP1 d3 were measured for each LRP2 CR89 mutant by solid-phase assay. […] The A′ position in LRP2 CR89 is a tryptophan, the canonical residue for wild-type RAP d3 binding, and was not mutated in our studies. […] We did see a small increase in binding of RAP d3 to the WVWD and WDWD combinations at A, C, A′ and C′.

The target of a further test is T2, LRP2 CR89 V1047D. Description: solid-phase assay, coated CR protein. As to the method:
as §1, §2

The next test addresses T3, LRP2 CR89 V1047D R1088D. Description: solid-phase assay, coated CR protein. As to the method:
as §1, §2

Test [2] has as its target T5, LRP1 CR3-5. Description: solid-phase assay, coated CR protein (same value as Table 1).
Test [3] deals with T5, LRP1 CR3-5. Description: solid-phase assay, coated CR protein. As to the method: as §1
Next, the binding of RAP d3 and MegaRAP1 d3 proteins to LRP1 CR3-5 and LRP2 CR89 was assessed. […] In all cases, 10 mM EGTA prevented binding of both RAP d3 and MegaRAP1 d3 to CR proteins. Since calcium was the only divalent metal ion present in the binding buffer, this observation is consistent with both RAP d3 and MegaRAP1 d3 binding to calcium-loaded CR pairs. […] Therefore, wild-type RAP d3 and MegaRAP1 d3 have inverted binding preferences for these two receptor fragments.

Test [4] has as its target T4, MegaRAP1 d3. Description: solid-phase assay, coated CR protein. As to the method:
as §1, §2

For test [5], the target named is T4, MegaRAP1 d3. The test is described as follows: solid-phase binding assay: CR protein coated on the plate, d3 ligand at 80 nM, anti-RAP detection, blank-corrected absorbance. As to the method:
(§3) RAP d3, MegaRAP1 d3, VRAP2 d3, MatRAP1d3 and MatRAP2 d3 were each incubated at 80 nM concentrations with LRP1 CR3-5, LRP6 CR12, LRP6 CR23, LRP6 CR1-3, LRP2 CR89, LRP2 CR2728, LRP2 CR3031, LRP2 CR3435, LRP2 CR34-36, VLDLR CR78, VLDLR CR6-8, MAT CR12, MAT CR23 and MAT CR34. Samples were tested twice, in duplicate, and values combined. Means and standard deviations were then calculated. Blank values obtained from wells incubated in the absence of ligand were used to correct absorbance data.
(§4) Solid phase binding assays—Purified, refolded CR protein (1 μg) was bound to Nunc Maxisorp™ 96-well plates in TBS pH 8 supplemented with 5 mM CaCl₂ (TBSC) overnight at 4° C. Wells were washed with TBSC and then blocked with TBSC containing 2% bovine serum albumin (BSA). RAP ligands were then incubated with the immobilized receptor at a range of concentrations for 2 hours in the above blocking buffer supplemented with 0.05% Tween-20 at room temperature. Control wells contained no added ligand. As an additional control, to determine whether the absence of calcium affected binding, 10 mM EGTA was included in the incubation medium for some samples. Wells were washed with TBSTC and bound ligands detected with polyclonal anti-RAP (BP41/42, 1:1,000, BioMarin). Excess primary antibody was removed and wells washed before incubation with the secondary antibody, HRP-conjugated goat anti rabbit IgG (Bio-Rad). After washing, TMB substrate solutions (Bio-Rad) were added to detect HRP. Color development was stopped with 1N HCl. Absorption at 450 nm was measured with a microplate spectrophotometer (Molecular Devices). Data were plotted and Kd values derived by non-linear regression with the assumption of single-site binding (GraphPad Prism).
(§5) The apparent dissociation constant for binding of VRAP1d3 to VLDLR CR78 was determined to be […]. We then compared binding of RAP d3, MegaRAP1 d3, VRAP1d3, MatRAP1d3 and MatRAP2 d3, each at a concentration of 80 nM, to fourteen CR pairs or triplets, including LRP1 CR3-5, LRP2 CR89, LRP2 CR2728, LRP2 CR3031, LRP2 CR34-36, LRP2 CR3536, VLDLR CR78, VLDLR CR6-8, LRP6 CR1-3, LRP6 CR12, LRP6 CR23, MAT CR12, MAT CR23 and MAT CR34 (FIG. 7).

The target in test [6] is B1. The description is as above. As to the method:
as §3, §4, §5

Test [7] deals with T6, GFRα-1.
T6 construct: Bought reagent; construct not described; also called soluble GFRα-1
Description: solid-phase assay, coated RAP-GDNF, serial dilutions of GFRα-1 (FIG. 12). As to the method:
Solid-phase binding assays—Microtiter plates were coated with GDNF or RAP-GDNF in 50 mM sodium carbonate, pH 9.6. The plates were then blocked for 1 hour at room temperature with blocking buffer (Promega) and incubated with serial dilutions of GFRα-1 (0-10 nM) in the presence or the absence of 1 μM RET (2 hours, ambient temperature). Complexes were identified by probing with an anti-GDNF monoclonal antibody (B8, Santa Cruz Biotechriology) and then with anti-mouse […] (Bio-Rad). After adding TMB solution (Bio-Rad), the color development was stopped with HCl and the OD 450 nm was measured using a plate reader. Between steps, the plates were washed three times with DPBS containing 0.1% Tween 20. This method provides a method for quantitating the affinity of RAP-GDNF for GFRα.

Test [8] deals with T6, GFRα-1. The test is described as follows: solid phase assay, RAP-GDNF concentration varied, OD 450 nm.

Consider B1, for which the values for the equilibrium dissociation constant (Kd) with LRP1 CR3-5 [1], in the test with LRP1 CR3-5 [2] and with LRP1 CR3-5 [3] were 11 nM, 16 nM and 16 nM, respectively. In addition, the figures for the “% max bind” value in the test with LRP2 CR89 Y1042W R1088D, with LRP2 CR89 V1047D and with LRP2 CR89 V1047D R1088D were 16%, 6% and 6%, respectively. The “% max binding” value with LRP1 CR3-5 [3] was 76%.

As for B2, in the test with MegaRAP1 d3 [4], the Kd – broadly, the equilibrium constant for the complex coming apart – came to 78 nM.

Regarding B3, the binding result (in the test with MegaRAP1 d3 [5]; in test [6]) was “no binding (tested: 80 nM)” in each case.

For the molecule B4, the Kd with GFRα-1 [7] was ~5 ng/mL. Moreover, in the test with GFRα-1 [8], the EC50 (read off the curve) (in general, the midpoint of the concentration-response curve) is ~2 ng/mL.
